Laboratory results from patent publication US20240026032A1 (Alexion, published 2024).

Columns and labels:
[1] = target: T1, Programmed Death 1 (PD-1) Fc chimera (R&D Systems, Catalog # 1086-PD-050) (human, UniProt Q15116 25-167); assay: BLI, PD-1 Fc loaded on anti-human IgG tips, fusion as analyte, dissociation in PBS
T1 construct: Bought reagent; not shown: Fc part of the bought chimera (captured by anti-human Fc tips)

[2] = target: T1, Programmed Death 1 (PD-1) Fc chimera …; assay: BLI (Octet), PD-1 Fc captured on anti-human Fc tips, TPP-999 at 10 µg/mL in PBS as analyte
Protocol: (§1) Final dissociation in PBS was performed in the last step on the Bio-Layer Interferometry (BLI) data.

[3] = target: T1, Programmed Death 1 (PD-1) Fc chimera …; assay: BLI (Octet), PD-1 Fc captured on anti-human Fc tips, TPP-1001 at 10 µg/mL in PBS as analyte
Protocol: as §1

[4] = target: T1, Programmed Death 1 (PD-1) Fc chimera …; assay: BLI (Octet), PD-1 Fc captured on anti-human Fc tips, TPP-993 in PBS as analyte
Protocol: as §1

[5] = target: T1, Programmed Death 1 (PD-1) Fc chimera …; assay: BLI (Octet Red), TPP-985 loaded on anti-human IgG Fc tips, DLAT 10 µg/mL bound first, then PD-1 Fc
Protocol: (§2) Antibodies and antibody fusions were diluted to 16 μg/mL in PBS and loaded onto anti-human IgG Fc tips (ForteBio, Catalog # 18-5064). Human DLAT recombinant protein (ProSpec, Catalog # ENZ-082) was diluted into PBS to 10 μg/mL. […] Finally, a dissociation step in PBS was performed to determine dissociation from the bound antibodies.

[6] = target: T1, Programmed Death 1 (PD-1) Fc chimera …; assay: BLI (Octet Red), TPP-990 loaded on anti-human IgG Fc tips, DLAT 10 µg/mL bound first, then PD-1 Fc
Protocol: as §2

T1 sequence (Q15116 25-167, change not shown): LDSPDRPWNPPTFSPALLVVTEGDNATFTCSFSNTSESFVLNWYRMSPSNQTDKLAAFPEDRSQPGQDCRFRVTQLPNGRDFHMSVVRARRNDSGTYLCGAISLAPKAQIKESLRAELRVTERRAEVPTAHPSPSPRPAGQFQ

B1: TPP-1986 (murine IgG1 Fc Silent, N-terminus_PDL1_LC_PD5) (antibody)
heavy: QLQLQESGPGLVKPSETLSLTCIVSGGSISRNSYYWGWIRQPPGKGLEWIGSIVYSGSTYHQPSLKSRVTIFLDTSKNQFFLKLTSVTAADTAVYYCARGTRATTWPPPIGYWGQGTLVTVSSAKTTPPSVYPLAPGSAAQTNSMVTLGCLVKGYFPEPVTVTWNSGSLSSGVHTFPAVLQSDLYTLSSSVTVPSSTWPSQTVTCNVAHPASSTKVDKKIVPRDCGCKPCICTVPEQSSVFIFPPKPKDVLMISLTPKVTCVVVDISKDDPEVQFSWFVDDVEVHTAQTKPREEQINSTFRSVSELPILHQDWLNGKEFKCRVNSAAFPAPIEKTISKTKGRPKAPQVYTIPPPKEQMAKDKVSLTCMITNFFPEDITVEWQWNGQPAENYKNTQPIMDTDGSYFVYSKLNVQKSNWEAGNTFTCSVLHEGLHNHHTEKSLSHSPGK
light: FTVTVPKDLYVVEYGSNMTIECKFPVEKQLDLAALIVYWEMEDKNIIQFVHGEEDLKVQHSSYRQRARLLKDQLSLGNAALQITDVKLQDAGVYRCMISYGGADYKRITVKVNAGGSSRSSSSGGGGSGGGGQSVLTQPPSVSAAPGQKVTVSCFGSSSNIGNYFASWYQQLPGAAPRLLIYGNNERPSGIPDRFSGSKSGTSATLVITGLQTGDEAAYYCATWDSSLSAVVFGGGTKLTVLGQPKSSPSVTLFPPSSEELETNKATLVCTITDFYPGVVTVDWKVDGTPVTQGMETTQPSKQSNNKYMASSYLTLTARAWERHSSYSCQVTHEGHTVEKSLSRADCS
notes: also called huPDL1; Human PDL1_Mouse PD5
binding result [1]: binds

B2: TPP-999 (PD2 with PD-L1 fused to the C-terminus of the light chain) (Fab)
heavy: EVQLVESGGGLVKPGGSLRLSCAASGFTFGSYSMTWVRQAPGKGLEWVSFISTVSTYIYYPDSVKGRFTISRDNAKNSLYLQMNSLRAEDTAVYYCARVSGRGSAARDGEKGTYYYYMDVWGKGTTVTVSSASTKGPSVFPLAPSSKSTSGGTAALGCLVKDYFPEPVTVSWNSGALTSGVHTFPAVLQSSGLYSLSSVVTVPSSSLGTQTYICNVNHKPSNTKVDKRVEPKSC
light: SSELTQDPAVSVALGQTVTITCQGDSLRSYYASWYQQKPGQAPVLVIFGKNNRPSGIPDRFSGSRSGNTASLTITGAQAEDEADYFCDSRDSSANHWVFGGGTKLTVLQPKAAPSVTLFPPSSEELQANKATLVCLISDFYPGAVTVAWKADSSPVKAGVETTTPSKQSNNKYAASSYLSLTPEQWKSHKSYSCQVTHEGSTVEKTVAPTECSGGSSRSSSSGGGGSGGGGFTVTVPKDLYVVEYGSNMTIECKFPVEKQLDLAALIVYWEMEDKNIIQFVHGEEDLKVQHSSYRQRARLLKDQLSLGNAALQITDVKLQDAGVYRCMISYGGADYKRITVKVNA
notes: Fab fusion with the human PD-L1 variable-like domain
binding result [2]: binds

B3: TPP-1001 (PD2 with PD-L1 fused to the N-terminus of the light chain) (Fab)
heavy: EVQLVESGGGLVKPGGSLRLSCAASGFTFGSYSMTWVRQAPGKGLEWVSFISTVSTYIYYPDSVKGRFTISRDNAKNSLYLQMNSLRAEDTAVYYCARVSGRGSAARDGEKGTYYYYMDVWGKGTTVTVSSASTKGPSVFPLAPSSKSTSGGTAALGCLVKDYFPEPVTVSWNSGALTSGVHTFPAVLQSSGLYSLSSVVTVPSSSLGTQTYICNVNHKPSNTKVDKRVEPKSC
light: FTVTVPKDLYVVEYGSNMTIECKFPVEKQLDLAALIVYWEMEDKNIIQFVHGEEDLKVQHSSYRQRARLLKDQLSLGNAALQITDVKLQDAGVYRCMISYGGADYKRITVKVNAGGSSRSSSSGGGGSGGGGSSELTQDPAVSVALGQTVTITCQGDSLRSYYASWYQQKPGQAPVLVIFGKNNRPSGIPDRFSGSRSGNTASLTITGAQAEDEADYFCDSRDSSANHWVFGGGTKLTVLQPKAAPSVTLFPPSSEELQANKATLVCLISDFYPGAVTVAWKADSSPVKAGVETTTPSKQSNNKYAASSYLSLTPEQWKSHKSYSCQVTHEGSTVEKTVAPTECS
notes: as for B2
binding result [3]: binds

B4: TPP-993 (PD2 Fab having no PD-L1 domain and no linker) (Fab)
heavy: EVQLVESGGGLVKPGGSLRLSCAASGFTFGSYSMTWVRQAPGKGLEWVSFISTVSTYIYYPDSVKGRFTISRDNAKNSLYLQMNSLRAEDTAVYYCARVSGRGSAARDGEKGTYYYYMDVWGKGTTVTVSSASTKGPSVFPLAPSSKSTSGGTAALGCLVKDYFPEPVTVSWNSGALTSGVHTFPAVLQSSGLYSLSSVVTVPSSSLGTQTYICNVNHKPSNTKVDKRVEPKSC
light: SSELTQDPAVSVALGQTVTITCQGDSLRSYYASWYQQKPGQAPVLVIFGKNNRPSGIPDRFSGSRSGNTASLTITGAQAEDEADYFCDSRDSSANHWVFGGGTKLTVLQPKAAPSVTLFPPSSEELQANKATLVCLISDFYPGAVTVAWKADSSPVKAGVETTTPSKQSNNKYAASSYLSLTPEQWKSHKSYSCQVTHEGSTVEKTVAPTECS
binding result [4]: no binding (tested: 10 µg/mL)

B5: TPP-985, human IgG2/4 PD5 antibody (antibody)
heavy: QLQLQESGPGLVKPSETLSLTCIVSGGSISRNSYYWGWIRQPPGKGLEWIGSIVYSGSTYHQPSLKSRVTIFLDTSKNQFFLKLTSVTAADTAVYYCARGTRATTWPPPIGYWGQGTLVTVSSASTKGPSVFPLAPCSRSTSESTAALGCLVKDYFPEPVTVSWNSGALTSGVHTFPAVLQSSGLYSLSSVVTVPSSNFGTQTYTCNVDHKPSNTKVDKTVERKCCVECPPCPAPPVAGPSVFLFPPKPKDTLMISRTPEVTCVVVDVSQEDPEVQFNWYVDGVEVHNAKTKPREEQFNSTYRVVSVLTVLHQDWLNGKEYKCKVSNKGLPSSIEKTISKAKGQPREPQVYTLPPSQEEMTKNQVSLTCLVKGFYPSDIAVEWESNGQPENNYKTTPPVLDSDGSFFLYSRLTVDKSRWQEGNVFSCSVMHEALHNHYTQKSLSLSLGK
light: QSVLTQPPSVSAAPGQKVTVSCFGSSSNIGNYFASWYQQLPGAAPRLLIYGNNERPSGIPDRFSGSKSGTSATLVITGLQTGDEAAYYCATWDSSLSAVVFGGGTKLTVLGQPKANPTVTLFPPSSEELQANKATLVCLISDFYPGAVTVAWKADGSPVKAGVETTKPSKQSNNKYAASSYLSLTPEQWKSHRSYSCQVTHEGSTVEKTVAPTECS
notes: also called PD5_IgG2-4; anti-DLAT IgG2-4 antibody with no PD-L1 variable-like domain
binding result [5]: no binding (tested: 12.5 µg/mL)

B6: TPP-990, human IgG2/4 PD5 antibody, C-terminus PD-L1 LC (antibody)
heavy: QLQLQESGPGLVKPSETLSLTCIVSGGSISRNSYYWGWIRQPPGKGLEWIGSIVYSGSTYHQPSLKSRVTIFLDTSKNQFFLKLTSVTAADTAVYYCARGTRATTWPPPIGYWGQGTLVTVSSASTKGPSVFPLAPCSRSTSESTAALGCLVKDYFPEPVTVSWNSGALTSGVHTFPAVLQSSGLYSLSSVVTVPSSNFGTQTYTCNVDHKPSNTKVDKTVERKCCVECPPCPAPPVAGPSVFLFPPKPKDTLMISRTPEVTCVVVDVSQEDPEVQFNWYVDGVEVHNAKTKPREEQFNSTYRVVSVLTVLHQDWLNGKEYKCKVSNKGLPSSIEKTISKAKGQPREPQVYTLPPSQEEMTKNQVSLTCLVKGFYPSDIAVEWESNGQPENNYKTTPPVLDSDGSFFLYSRLTVDKSRWQEGNVFSCSVMHEALHNHYTQKSLSLSLGK
light: QSVLTQPPSVSAAPGQKVTVSCFGSSSNIGNYFASWYQQLPGAAPRLLIYGNNERPSGIPDRFSGSKSGTSATLVITGLQTGDEAAYYCATWDSSLSAVVFGGGTKLTVLGQPKANPTVTLFPPSSEELQANKATLVCLISDFYPGAVTVAWKADGSPVKAGVETTKPSKQSNNKYAASSYLSLTPEQWKSHRSYSCQVTHEGSTVEKTVAPTECSGGSSRSSSSGGGGSGGGGFTVTVPKDLYVVEYGSNMTIECKFPVEKQLDLAALIVYWEMEDKNIIQFVHGEEDLKVQHSSYRQRARLLKDQLSLGNAALQITDVKLQDAGVYRCMISYGGADYKRITVKVNA
notes: Antibody fused with the human PD-L1 variable-like domain
binding result [6]: no binding (tested: 12.5 µg/mL)
